In US12195506B2, “Immunotherapy with A*01 restricted peptides and combination of peptides against cancers and related methods” (Immatics Biotechnologies GmbH, priority 2018, dated 2025):

The substances below were run against HLA-A*01:01 (Homo sapiens, UniProt P04439, A114D/A174V/A182V/D101N/D185E/E176A/E190D/L180R/Q94H/R68K/S129P/T187R/V100A/V91M/W191G) (assay: MHC binding assay: UV-ligand exchange, ELISA of stabilized MHC complexes (peptide exchange yield)). Details: binding to HLA-A*01:01, UV-ligand exchange.
Description: Candidate peptides for T cell based therapies according to the present invention were further tested for their MHC binding capacity (affinity). The individual peptide-MHC complexes were produced by UV-ligand exchange, where a UV-sensitive peptide is cleaved upon UV-irradiation and exchanged with the peptide of interest as analyzed. Only peptide candidates that can effectively bind and stabilize the peptide-receptive MHC molecules prevent dissociation of the MHC complexes. To determine the yield of the exchange reaction, an ELISA was performed based on the detection of the light chain (β2m) of stabilized MHC complexes. The assay was performed as generally described in Rodenko et al. (Rodenko et al., 2006)
96 well MAXISorp plates (NUNC) were coated over night with 2 ug/ml streptavidin in PBS at room temperature, washed 4× and blocked for 1 h at 37° C. in 2% BSA containing blocking buffer. Refolded HLA-A*02:01/MLA-001 monomers served as standards, covering the range of 15-500 ng/ml. Peptide-MHC monomers of the UV-exchange reaction were diluted 100-fold in blocking buffer. Samples were incubated for 1 h at 37° C., washed four times, incubated with 2 ug/ml HRP conjugated anti-β2m for 1 h at 37° C., washed again and detected with TMB solution that is stopped with […]. Absorption was measured at 450 nm.

| Substance | Peptide exchange |
| --- | --- |
| 23 (DTDPLKAAGL; listed as Homo sapiens) [compound 23] | + (>10% =+) |
| 135 (TFDKQIVLL; listed as Homo sapiens) [compound 135] | ++ (>20% = ++) |
| 161 (EAAPDIMHY; listed as Homo sapiens) [compound 161] | ++ (>20% = ++) |
| 133 (ITDVGPGNY; listed as Homo sapiens) [compound 133] | +++ (>50 = +++) |
| 101 (SITDVDFIY; listed as Homo sapiens) [compound 101] | ++ (>20% = ++) |
| 17 (ASWAVLCYY; listed as Homo sapiens) [compound 17] | +++ (>50 = +++) |
| 68 (QSLPEFGLTY; listed as Homo sapiens) [compound 68] | ++ (>20% = ++) |
| 121 (SADEAHGLL; listed as Homo sapiens) [compound 121] | ++ (>20% = ++) |
| 51 (STEERRLNY; listed as Homo sapiens) [compound 51] | +++ (>50 = +++) |
| 21 (LSSAVNPIIY; listed as Homo sapiens) [compound 21] | ++ (>20% = ++) |
| 229 (MTDVFIDY; listed as Homo sapiens) [compound 229] | +++ (>50 = +++) |
| 136 (RRLNFSGFGY; listed as Homo sapiens) [compound 136] | +++ (>50 = +++) |
| 125 (FQYELRELY; listed as Homo sapiens) [compound 125] | ++++ (>75% = ++++) |
| 112 (KASSVSAEDGY; listed as Homo sapiens) [compound 112] | ++ (>20% = ++) |
| 55 (ATEGDVLNY; listed as Homo sapiens) [compound 55] | +++ (>50 = +++) |
| 45 (NLDPNKIY; listed as Homo sapiens) [compound 45] | + (>10% =+) |
| 154 (SIEVFTHY; listed as Homo sapiens) [compound 154] | +++ (>50 = +++) |

| Substance | Peptide exchange |
| --- | --- |
| 48 (FTTQDELLVY; listed as Homo sapiens) [compound 48] | +++ (>50 = +++) |
| 20 (LSAQHRMLA; listed as Homo sapiens) [compound 20] | ++ (>20% = ++) |
| 156 (STALSILLL; listed as Homo sapiens) [compound 156] | ++ (>20% = ++) |
| 172 (FSEPFHLIV; listed as Homo sapiens) [compound 172] | +++ (>50 = +++) |
| 117 (SPAKQFNIY; listed as Homo sapiens) [compound 117] | +++ (>50 = +++) |
| 30 (VTTDKPRAY; listed as Homo sapiens) [compound 30] | ++ (>20% = ++) |
| 2 (VDPIGHLY; listed as Homo sapiens) [compound 2] | ++ (>20% = ++) |
| 122 (ISEAPLTEV; listed as Homo sapiens) [compound 122] | ++ (>20% = ++) |
| 50 (ITDEDEDMLSY; listed as Homo sapiens) [compound 50] | +++ (>50 = +++) |
| 76 (QTDVERIKDTY; listed as Homo sapiens) [compound 76] | +++ (>50 = +++) |
| 62 (VSELVTTGHY; listed as Homo sapiens) [compound 62] | +++ (>50 = +++) |
| 143 (HVSGQMLYF; listed as Homo sapiens) [compound 143] | ++ (>20% = ++) |
| 67 (NVDQNQNSY; listed as Homo sapiens) [compound 67] | +++ (>50 = +++) |
| 25 (AMMQEAQLAY; listed as Homo sapiens) [compound 25] | +++ (>50 = +++) |
| 44 (IPSFNEMVY; listed as Homo sapiens) [compound 44] | ++ (>20% = ++) |
| 52 (TTQDELLVY; listed as Homo sapiens) [compound 52] | +++ (>50 = +++) |
| 74 (EMEQQSQEY; listed as Homo sapiens) [compound 74] | ++++ (>75% = ++++) |

Further lines, results first:

| Peptide exchange | Substance |
| --- | --- |
| +++ (>50 = +++) | 318 (YMTSMALNY; listed as Homo sapiens) [compound 318] |
| ++ (>20% = ++) | 314 (PPEANSLQGALY; listed as Homo sapiens) [compound 314] |
| +++ (>50 = +++) | 230 (CVIETFHKY; listed as Homo sapiens) [compound 230] |
| ++++ (>75% = ++++) | 322 (FSELNPLALY; listed as Homo sapiens) [compound 322] |
| ++ (>20% = ++) | 214 (VQDPSLPVY; listed as Homo sapiens) [compound 214] |
| +++ (>50 = +++) | 272 (IPQDECLRY; listed as Homo sapiens) [compound 272] |
| +++ (>50 = +++) | 173 (QSTTGVSHY; listed as Homo sapiens) [compound 173] |
| ++ (>20% = ++) | 184 (KTIQEVAGY; listed as Homo sapiens) [compound 184] |
| ++ (>20% = ++) | 198 (KLTDYINANY; listed as Homo sapiens) [compound 198] |
| + (>10% =+) | 268 (AILHHLYFY; listed as Homo sapiens) [compound 268] |
| ++ (>20% = ++) | 324 (RTGIFPYRF; listed as Homo sapiens) [compound 324] |
| ++ (>20% = ++) | 316 (YTCEECGQAF; listed as Homo sapiens) [compound 316] |
| ++++ (>75% = ++++) | 334 (PSSMPECLSY; listed as Homo sapiens) [compound 334] |
| ++ (>20% = ++) | 321 (DGIADASNLSYY; listed as Homo sapiens) [compound 321] |
| +++ (>50 = +++) | 260 (KPTEDSANVY; listed as Homo sapiens) [compound 260] |
| ++ (>20% = ++) | 256 (HAFESNNFIY; listed as Homo sapiens) [compound 256] |
| ++++ (>75% = ++++) | 253 (YLESHGLAY; listed as Homo sapiens) [compound 253] |
| +++ (>50 = +++) | 286 (ATDMEGNLNY; listed as Homo sapiens) [compound 286] |
| ++ (>20% = ++) | 250 (GYVCNACGLY; listed as Homo sapiens) [compound 250] |
| ++ (>20% = ++) | 317 (EDLLEVLDMY; listed as Homo sapiens) [compound 317] |
| ++ (>20% = ++) | 325 (LQKPVLPLY; listed as Homo sapiens) [compound 325] |

| Peptide exchange | Substance |
| --- | --- |
| ++ (>20% = ++) | 235 (SIEIDHTQY; listed as Homo sapiens) [compound 235] |
| ++ (>20% = ++) | 378 (TAKAPSTEY; listed as Homo sapiens) [compound 378] |
| +++ (>50 = +++) | 335 (PSSMPECLSYY; listed as Homo sapiens) [compound 335] |
| ++ (>20% = ++) | 263 (DCMDTEGSYM; listed as Homo sapiens) [compound 263] |
| ++++ (>75% = ++++) | 257 (KSEMNVNMKY; listed as Homo sapiens) [compound 257] |
| ++ (>20% = ++) | 178 (TQRTSFQFY; listed as Homo sapiens) [compound 178] |
| ++++ (>75% = ++++) | 363 (LTDRDVSFY; listed as Homo sapiens) [compound 363] |
| +++ (>50 = +++) | 301 (ESQTCASDY; listed as Homo sapiens) [compound 301] |
| ++ (>20% = ++) | 265 (LSDIDSRYI; listed as Homo sapiens) [compound 265] |
| + (>10% =+) | 373 (FHADSDDESF; listed as Homo sapiens) [compound 373] |
| +++ (>50 = +++) | 276 (QITSFASGTSY; listed as Homo sapiens) [compound 276] |
| ++++ (>75% = ++++) | 216 (NSMLDPLVY; listed as Homo sapiens) [compound 216] |
| ++ (>20% = ++) | 199 (LCAAVLAKY; listed as Homo sapiens) [compound 199] |
| +++ (>50 = +++) | 285 (VLPHHSEGACVY; listed as Homo sapiens) [compound 285] |
| +++ (>50 = +++) | 174 (TSEVEGLAFVSY; listed as Homo sapiens) [compound 174] |
| ++ (>20% = ++) | 379 (SLIIDDTEY; listed as Homo sapiens) [compound 379] |
| +++ (>50 = +++) | 287 (ENSIEDLQY; listed as Homo sapiens) [compound 287] |
| +++ (>50 = +++) | 193 (SQNGQLIHY; listed as Homo sapiens) [compound 193] |
| ++ (>20% = ++) | 201 (SLPEFGLTYY; listed as Homo sapiens) [compound 201] |
| ++++ (>75% = ++++) | 210 (LLEADPFLKY; listed as Homo sapiens) [compound 210] |
